Experiment [1] deals with EBOV GP[change] (Ebola virus), Q05320. Particulars: remark: other sources report otherwise.
For experiment [2], the target named is cleaved EBOV GP (GPcl) (Ebola virus (EBOV)), Q05320. Briefly: ELISA on thermolysin cleaved EBOV GP (GPcl), OD650 against nM mAb. The note with it: remark: other sources report otherwise.
In experiment [3] the target is EBOV GP[change] (Ebola virus), Q05320. Particulars: remark: other sources report otherwise. The source holds these as a separate data set.
In experiment [4] the target is RESTV GP[change] (Reston virus) (UniProt Q66799).
Experiment [5] addresses EBOV GP[change] (Ebola virus) (UniProt Q05320).
Experiment [6] has as its target BDBV GP[change] (Bundibugyo virus (BDBV)). Briefly: ELISA, GPΔTM coated.
In experiment [7] the target is EBOV GP[change] (Ebola virus), Q05320. The note with it: remark: other sources report otherwise. This is another data set of the same source.
Experiment [8] has as its target cleaved EBOV GP (GPcl) (Ebola virus (EBOV)), Q05320. The experiment in a line: ELISA, cleaved EBOV GP coated. The note with it: remark: other sources report otherwise.
Experiment [9] has the same target. The experiment in a line: ELISA on cathepsin-cleaved EBOV GP at pH 7. Particulars: remark: other sources report otherwise.
The target of experiment [10] is MARV GP[change] (Marburg virus), P35253. Particulars: remark: other sources report otherwise.
In experiment [11] the target is cleaved EBOV GP (GPcl) (Ebola virus (EBOV)), Q05320. Briefly: ELISA on cathepsin-cleaved EBOV GP at pH 5.5. The note with it: remark: other sources report otherwise.
Experiment [12] addresses MARV GP[change] (Marburg virus) (UniProt P35253).
The target in experiment [13] is SUDV GP[change] (Sudan virus) (UniProt Q66814).
In experiment [14] the target is EBOV GP[change] (Ebola virus) (UniProt Q05320). This is another data set of the same source.

This is an account of results in patent US20170158753A1.

Changes are numbered by the printed parent chain. “And” between values parts separate entries of the source, which are not always exact repeats. Equal values may be shown once. Read-outs that look alike come from different tables or passages of the source.

B1: m16G8 (antibody, V domains shown)
VH: EVQLQESGPGLVKPGASVKISCKASGYSFTGYYMNWVKQSPEKSLEWIGEINPSTGGTTYNQKFKAKATLTVDKSSSTAYMQLKSLTSEDSAVYYCVRYSHYYGSGSWYFDVWGTGTTVTVSS
VL: DIQMTQSPASLSASVGETVTITCRASENIYSNLAWYQQKQGKSPQLLVNAATNLADGVPSRFSGSGSGTQFSLKINSLQPEDFGSYYCQHFYVTPYMFGSGTKLEIKR
Take B1: the half-maximal effective concentration (EC50) in [1] is 3.3 nM; in [2], over 100 nM; in experiment [3], 1.23 µg/mL.

B2: m2E4 (antibody, V domains shown)
VH: B1 VH with G10E
VL: B1 VL with M97T
On to B2, for which the EC50 in experiment [4] was over 10 µg/mL; in experiment [5], over 10 µg/mL; in experiment [6], 0.69 µg/mL.

B3: m17C6 (antibody, V domains shown)
VH: EVQLQESGPGLVQPSQSLSITCTVSGFSLTSYGVHWVRQSPGKGLEWLGVIWSGGSTDYNAAFISRLSISKDNSKSQVFFKMNSLQADDTAIYYCARNWFDYDNYYSMDYWGQGTSVTVSS
VL: DIQMTQTTSSLSASLGDRVTISCRASQDISNYLNWYQQKPDGTVKLLIYYTSRLHSGVPSRFSGSGSGTDFSLTISNQEPEDIATYYCQQYSNLPWTFGGGTKLEIKR
Take B3: in [7], the Kd was 11 nM. In addition, the values for the EC50 in experiment [1], in experiment [2] and in [3] were 1 nM, 0.6 nM and 0.03 µg/mL, respectively.

B4: m2D8 (antibody, V domains shown)
VH: EVQLQESGGELVRPGTSVKISCKASGYTFTNFWLGWIKERPGHGLEWIGDIYPGGHYTNYNENFKGKATLTADTSSNTAYMQVSSLTSEDSAVYFCFTQYYDMDYWGQGTSVTVSS
VL: not shown
With B4, the results for the EC50 in [8], in experiment [3] and in experiment [10] were 0.72 µg/mL, 26.2 µg/mL and 0.0573 µg/mL, respectively. For the same molecule, the EC50 (read off the curve) in experiment [9] is 0.7 µg/mL; in experiment [11] it was 1 µg/mL.

B5: m21B2 (antibody, V domains shown)
VH: EVQLQESGAELVRPGASVTLSCKTSGYTFTDYEMHWVKQTPVHGLEWIGAIDPETGGTAYNQKFKGKATLTADKSSSTAYMELSRLTSEDSAVYYCTGNYATDYWGQGTSVTVSS
VL: DIVMSQSPSSLAVSAGEKVTMSCKSSQSLFNSRSRKNYLAWYQLKPGQSPKLLIYWASTRESGVPDRFTGSGSGTDFTLTISSVQAEDLAVYYCKQSNYLWTFGGGTKLEIKR
In the case of B5, the EC50 is 0.0688 µg/mL in experiment [12], over 10 µg/mL in [13], over 10 µg/mL in experiment [3] and 0.0307 µg/mL in experiment [10].

B6: m8C4 (antibody, V domains shown)
VH: EVQLQESGPELKKPGETVKISCKASGYTFTTYGMSWVKQAPGKGLKWMGRINTYSGVPTYADEFKGRFAFSLENSASTAYLQINNLKNEDTATYFCARGDGGHWFANWGQGTLVTVSA
VL: DIQMTQSPSSLSASLGGKVTITCKASQDINKNIAWYQHKPGKGPRLLIWYKSALQPGIPSRFSGSGSGRDYSFSISNLEPEDIATYSCLQYDNLPPTFGGGTKLEIKR
Turning to B6, the EC50 in experiment [5] is 0.26 µg/mL; in experiment [13], 0.15 µg/mL and 0.06 µg/mL; in experiment [1], 2.6 nM; in experiment [6], over 10 µg/mL; in experiment [14], 6.7 nM; in [3], 0.21 µg/mL.
